Source: the supplement of paper PMC9112550, “Optimization of the antimicrobial peptide Bac7 by deep mutational scanning” (BMC Biology, 2022)

Tested on: Escherichia coli TOP10
Experiment: shrunken log2 fold change of peptide-encoding DNA abundance (4.5 h post-induction vs induction); higher = less antimicrobial activity (less host growth inhibition)
Details: time post-induction: 4.5 h; library: site-saturation at positions 5, 18, 19, 20
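Also: peptides expressed intracellularly from a pBAD plasmid library in pooled LB shake-flask culture, induced with 0.3% L-arabinose, DNA abundance read by NGS, three biological replicates, DESeq2 with apeglm shrinkage.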

Sequence | shrunken log2 fold change
RRIRNRPPRLPRPRPRPATCPRP | -0.00428
RRIRARPPRLPRPRPRPHPHPRP | 0.322
RRIRLRPPRLPRPRPRPTNFPRP | -0.0757
RRIRVRPPRLPRPRPRPQVAPRP | -0.136
RRIRARPPRLPRPRPRPYGEPRP | -0.168
RRIRGRPPRLPRPRPRPHSHPRP | 0.303
RRIRHRPPRLPRPRPRPHFMPRP | 0.00955
RRIRCRPPRLPRPRPRPTTLPRP | -0.219
RRIRKRPPRLPRPRPRPVTSPRP | 0.0678
RRIRGRPPRLPRPRPRPIAKPRP | 0.245
RRIRYRPPRLPRPRPRPRKHPRP | -0.483
RRIRERPPRLPRPRPRPDDKPRP | -0.433
RRIRNRPPRLPRPRPRPMFQPRP | -0.0465
RRIRWRPPRLPRPRPRPQSTPRP | 0.02
RRIRLRPPRLPRPRPRPISMPRP | -0.801
RRIRCRPPRLPRPRPRPMINPRP | -0.53
RRIRTRPPRLPRPRPRPMAFPRP | -0.0075
RRIRQRPPRLPRPRPRPRRPPRP | 0.472
RRIRPRPPRLPRPRPRPVPLPRP | 0.0768
RRIRGRPPRLPRPRPRPDCHPRP | 0.217
RRIRCRPPRLPRPRPRPKHIPRP | -0.443
RRIRNRPPRLPRPRPRPNPLPRP | 0.0887
RRIRKRPPRLPRPRPRPLQEPRP | 0.0634
RRIRYRPPRLPRPRPRPQFAPRP | 0.0437
RRIRLRPPRLPRPRPRPSHWPRP | -0.0446

Sequence | shrunken log2 fold change
RRIRARPPRLPRPRPRPWFIPRP | -0.502
RRIRDRPPRLPRPRPRPASNPRP | -0.15
RRIRMRPPRLPRPRPRPKQEPRP | 3.07
RRIRQRPPRLPRPRPRPQDKPRP | -0.802
RRIRMRPPRLPRPRPRPEVWPRP | 1.13
RRIRPRPPRLPRPRPRPIQIPRP | -0.119
RRIRYRPPRLPRPRPRPDWPPRP | -0.0212
RRIRARPPRLPRPRPRPTTHPRP | 0.38
RRIRDRPPRLPRPRPRPTYHPRP | -0.0146
RRIRGRPPRLPRPRPRPYDNPRP | -0.183
RRIRFRPPRLPRPRPRPHFEPRP | -0.185
RRIRLRPPRLPRPRPRPYWAPRP | 0.216
RRIRMRPPRLPRPRPRPHAIPRP | 0.224
RRIRDRPPRLPRPRPRPSQRPRP | -0.0409
RRIRRRPPRLPRPRPRPNQRPRP | 0.269
RRIRGRPPRLPRPRPRPKSYPRP | 0.685
RRIRERPPRLPRPRPRPWPWPRP | -0.233
RRIRIRPPRLPRPRPRPGRVPRP | 0.0447
RRIRPRPPRLPRPRPRPCKFPRP | -0.0234
RRIRDRPPRLPRPRPRPCAMPRP | 0.259
RRIRQRPPRLPRPRPRPKFSPRP | -0.914
RRIRVRPPRLPRPRPRPGYEPRP | 0.232
RRIRYRPPRLPRPRPRPWLMPRP | -0.0285
RRIRERPPRLPRPRPRPPQWPRP | 0.0679
RRIRRRPPRLPRPRPRPVKVPRP | -0.1

Sequence | shrunken log2 fold change
RRIRTRPPRLPRPRPRPLSWPRP | 0.0654
RRIRHRPPRLPRPRPRPCWIPRP | -0.00991
RRIRKRPPRLPRPRPRPSTWPRP | -0.18
RRIRGRPPRLPRPRPRPVLDPRP | 0.419
RRIRMRPPRLPRPRPRPTVVPRP | 0.0159
RRIRDRPPRLPRPRPRPGGLPRP | 0.501
RRIRQRPPRLPRPRPRPVWRPRP | 0.205
RRIRFRPPRLPRPRPRPAPNPRP | 0.408
RRIRSRPPRLPRPRPRPIWRPRP | 0.639
RRIRKRPPRLPRPRPRPFDRPRP | 0.375
RRIRTRPPRLPRPRPRPRFVPRP | -0.279
RRIRNRPPRLPRPRPRPLLRPRP | -0.267
RRIRIRPPRLPRPRPRPKHVPRP | -0.406
RRIRKRPPRLPRPRPRPTIHPRP | -0.087
RRIRKRPPRLPRPRPRPEINPRP | 0.0365
RRIRLRPPRLPRPRPRPMDNPRP | -1.1
RRIRDRPPRLPRPRPRPYHWPRP | 0.0299
RRIRERPPRLPRPRPRPREGPRP | 0.46
RRIRNRPPRLPRPRPRPIMKPRP | -0.059
RRIRLRPPRLPRPRPRPWWSPRP | -0.0019
RRIRSRPPRLPRPRPRPQAWPRP | -0.0983
RRIRHRPPRLPRPRPRPYAAPRP | -0.519
RRIRARPPRLPRPRPRPEWWPRP | 0.945
RRIRERPPRLPRPRPRPDHQPRP | -0.223
RRIRFRPPRLPRPRPRPGCFPRP | 0.0214

Sequence | shrunken log2 fold change
RRIRCRPPRLPRPRPRPRLIPRP | 0.0496
RRIRRRPPRLPRPRPRPPGWPRP | -0.0607
RRIRLRPPRLPRPRPRPGPTPRP | 0.109
RRIRNRPPRLPRPRPRPAAHPRP | -0.00675
RRIRNRPPRLPRPRPRPQFIPRP | -0.125
RRIRDRPPRLPRPRPRPVKDPRP | -0.173
RRIRKRPPRLPRPRPRPQCEPRP | -0.0553
RRIRNRPPRLPRPRPRPQHWPRP | 0.13
RRIRDRPPRLPRPRPRPDCRPRP | 0.249
RRIRRRPPRLPRPRPRPSWQPRP | 0.133
RRIRQRPPRLPRPRPRPKPAPRP | 0.357
RRIRFRPPRLPRPRPRPLHPPRP | -0.0197
RRIRCRPPRLPRPRPRPWADPRP | -0.0237
RRIRKRPPRLPRPRPRPVKWPRP | 0.122
RRIRLRPPRLPRPRPRPSYGPRP | -0.585
RRIRRRPPRLPRPRPRPDISPRP | 0.0322
RRIRCRPPRLPRPRPRPQCHPRP | 0.134
RRIRSRPPRLPRPRPRPITNPRP | 0.266
RRIRRRPPRLPRPRPRPRHHPRP | 0.0826
RRIRCRPPRLPRPRPRPQNNPRP | -0.526
RRIRGRPPRLPRPRPRPFKYPRP | -0.221
RRIRARPPRLPRPRPRPPDLPRP | 0.829
RRIRCRPPRLPRPRPRPPKRPRP | 0.797
RRIRFRPPRLPRPRPRPENCPRP | -0.855
RRIRSRPPRLPRPRPRPGAAPRP | 0.603

Sequence | shrunken log2 fold change
RRIRNRPPRLPRPRPRPEGCPRP | -0.0205
RRIRDRPPRLPRPRPRPKGLPRP | 0.253
RRIRQRPPRLPRPRPRPVRDPRP | 0.556
RRIRIRPPRLPRPRPRPPGLPRP | 0.204
RRIRHRPPRLPRPRPRPPANPRP | 0.478
RRIRMRPPRLPRPRPRPNQGPRP | -0.0312
RRIRHRPPRLPRPRPRPSDFPRP | 0.00333
RRIRMRPPRLPRPRPRPDELPRP | 2.12
RRIRRRPPRLPRPRPRPDLQPRP | 0.0255
RRIRFRPPRLPRPRPRPKKGPRP | 0.106
RRIRMRPPRLPRPRPRPVIHPRP | 0.0153
RRIRIRPPRLPRPRPRPVGQPRP | -0.195
RRIRRRPPRLPRPRPRPCKLPRP | 0.00583
RRIRLRPPRLPRPRPRPNSQPRP | -0.32
RRIRPRPPRLPRPRPRPYRRPRP | -0.198
RRIRRRPPRLPRPRPRPEFWPRP | 0.736
RRIRERPPRLPRPRPRPMKDPRP | 0.13
RRIRVRPPRLPRPRPRPCKNPRP | -0.0206
RRIRGRPPRLPRPRPRPDEVPRP | 0.885
RRIRARPPRLPRPRPRPIFLPRP | -0.0119
RRIRWRPPRLPRPRPRPLPRPRP | 0.534
RRIRTRPPRLPRPRPRPSDMPRP | 0.185
RRIRCRPPRLPRPRPRPYIHPRP | -1.11
RRIRPRPPRLPRPRPRPIGPPRP | 0.162
RRIRSRPPRLPRPRPRPQNHPRP | -0.604
